Source: the supplement of paper PMC10724198
± gives the standard deviation of the averaged measurements.

tested on: Saccharomyces cerevisiae; assay: protein stability index of tFT-peptide fusion (C-terminal peptide) (PSI (0-1 scale)); higher = more stable (slower turnover); conditions: genetic background: wild type; temperature: 30 C
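Also: PSI is a weighted mean of sequencing reads over stability bins, variants kept only with over 10 reads, mCherry proximal and sfGFP distal, peptide attached via GGGS linker.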

NRQNYAEDLKSC and NRSIFITMDSSL are within error of each other in protein stability index: 0.683 ± 0.02 for the first, 0.676 ± 0.011 for the second.

NRSMFSSQNDNA and NRYKIKKKIERR are within error of each other in protein stability index: 0.671 ± 0.066 for the first, 0.6 ± 0.039 for the second.

NSGSNKSNNRKC and NSPRKKPHKSIT are within error of each other in protein stability index: 0.726 ± 0.032 for the first, 0.711 ± 0.014 for the second.

NSSPCPLPLLPP and NSVHVRGRFITK are within error of each other in protein stability index: 0.662 ± 0.036 for the first, 0.678 ± 0.023 for the second.

NSVPSPSRSLPP and NTCKMRTRNIKA are within error of each other in protein stability index: 0.666 ± 0.081 for the first, 0.635 ± 0.0068 for the second.

NTEKNKRDRYQK and NTNPVHLKTHQT are within error of each other in protein stability index: 0.722 ± 0.019 for the first, 0.713 ± 0.011 for the second.

Compared with NTQLPASPVSQG, NTSRSKKKVNSK is higher in protein stability index: 0.628 ± 0.027 for the first, 0.704 ± 0.035 for the second.

NTSVSGTGVSSK and NTTIQLWVERRQ are within error of each other in protein stability index: 0.762 ± 0.12 for the first, 0.679 ± 0.063 for the second.

NTVLPTPTMSPP and NVIVRVPFVLEE are within error of each other in protein stability index: 0.702 ± 0.04 for the first, 0.692 ± 0.059 for the second.

Compared with NVMVRIGKGGVD, NVSFHRSHLLYF is lower in protein stability index: 0.6664 ± 0.0041 for the first, 0.654 ± 0.0067 for the second.

NYCKGFLLRANI and NYKFENQIAKPP are within error of each other in protein stability index: 0.645 ± 0.071 for the first, 0.655 ± 0.077 for the second.

PAACLSLPPPPS and PAFGLSPPSFST are within error of each other in protein stability index: 0.706 ± 0.031 for the first, 0.728 ± 0.089 for the second.

PAFPSPFPTSSL and PAISPPSPPPLP are within error of each other in protein stability index: 0.647 ± 0.099 for the first, 0.685 ± 0.047 for the second.

PALPPAPPPPPP and PANASAEGDTSP are within error of each other in protein stability index: 0.693 ± 0.044 for the first, 0.682 ± 0.0082 for the second.

Going from PANLLHPSDPPP to PAPLLPPSWRHP, the protein stability index rises from 0.612 ± 0.0064 to 0.716 ± 0.015.

PAPPAPPPPPYL and PAPPHPRHPPPP are within error of each other in protein stability index: 0.735 ± 0.087 for the first, 0.649 ± 0.018 for the second.

First: PAPPHTLPVWAD
Second: PAPPLPPLPLLP
The protein stability index of the first is higher: 0.728 ± 0.029 for the first, 0.684 ± 0.013 for the second.

PAPPPHIPPSPS and PAPRARTPLDRI are within error of each other in protein stability index: 0.651 ± 0.023 for the first, 0.683 ± 0.039 for the second.

First: PAPRFPFLFHPL
Second: PAQDCAATGVRR
The protein stability index of the first is higher: 0.776 ± 0.035 for the first, 0.672 ± 0.037 for the second.

PARASLRCLCRN and PARLQSTLHPRF are within error of each other in protein stability index: 0.662 ± 0.055 for the first, 0.634 ± 0.012 for the second.

PARPNMHTTPAD and PARPQSFPPPNV are within error of each other in protein stability index: 0.646 ± 0.02 for the first, 0.669 ± 0.035 for the second.

Going from PARPSPRPHLPD to PARPSSLQLFPY, the protein stability index rises from 0.692 ± 0.04 to 0.747 ± 0.0078.

First: PARQDRPPDHAS
Second: PARRPPLPRLFL
The protein stability index of the first is higher: 0.729 ± 0.031 for the first, 0.665 ± 0.032 for the second.

Going from PASLPTPLPLPP to PATPSPLSSSAP, the protein stability index rises from 0.618 ± 0.016 to 0.711 ± 0.039.

Compared with PAVAPRSTYAWH, PCGGVGRECVRG is higher in protein stability index: 0.69619 ± 0.00054 for the first, 0.762 ± 0.032 for the second.

PCPGSPPCHFYF and PCPRPTPLPPFP are within error of each other in protein stability index: 0.691 ± 0.018 for the first, 0.701 ± 0.055 for the second.

PCPVLPLPPFYL and PCRRPSSAPFPV are within error of each other in protein stability index: 0.728 ± 0.0074 for the first, 0.696 ± 0.027 for the second.

Compared with PCSGSFFLEFRV, PCSVDKAGSTKK is lower in protein stability index: 0.707 ± 0.021 for the first, 0.606 ± 0.014 for the second.

First: PDCSFLNSTFTS
Second: PDGREQLVNGVT
The protein stability index of the first is higher: 0.739 ± 0.088 for the first, 0.6359 ± 0.0019 for the second.

PDGTGPLCAPEP and PDPPPRCRFLPL are within error of each other in protein stability index: 0.646 ± 0.059 for the first, 0.698 ± 0.044 for the second.

Going from PDQPQPRPATNQ to PDRIQPRSVLLP, the protein stability index rises from 0.681 ± 0.022 to 0.7293 ± 0.0047.

PDVPLASPSPFR and PEFNKLNRFVSQ are within error of each other in protein stability index: 0.625 ± 0.023 for the first, 0.74 ± 0.11 for the second.

First: PEGPHTRTVVPA
Second: PEITWFVIGVIE
The protein stability index of the first is higher: 0.66 ± 0.0088 for the first, 0.541 ± 0.043 for the second.

PEPSRRASAVSN and PERFHLVCWVGR are within error of each other in protein stability index: 0.648 ± 0.059 for the first, 0.712 ± 0.083 for the second.

Compared with PFALPPPSPFPP, PFAVKYIFEVWK is lower in protein stability index: 0.7116 ± 0.0063 for the first, 0.591 ± 0.028 for the second.

PFCVPPPRPFSL and PFESSRRLAPSP are within error of each other in protein stability index: 0.743 ± 0.036 for the first, 0.722 ± 0.035 for the second.

PFGDRSGLCVSV and PFIPLSMLSPLV are within error of each other in protein stability index: 0.653 ± 0.017 for the first, 0.68 ± 0.036 for the second.

PFLEPPYPLLRS and PFLHPSSPPSPT are within error of each other in protein stability index: 0.704 ± 0.17 for the first, 0.698 ± 0.036 for the second.

PFLLSPCSLSAS and PFPALQHAISRE are within error of each other in protein stability index: 0.665 ± 0.026 for the first, 0.699 ± 0.066 for the second.

PFPLGPSLQTVI and PFPPLPPPPSPC are within error of each other in protein stability index: 0.681 ± 0.028 for the first, 0.71 ± 0.014 for the second.

PFPPPPPPPRSP and PFPPPPTPTLSP are within error of each other in protein stability index: 0.728 ± 0.047 for the first, 0.755 ± 0.027 for the second.

PFPPPRPPPAPP and PFPPRRLLSAPP are within error of each other in protein stability index: 0.613 ± 0.023 for the first, 0.671 ± 0.039 for the second.

PFPRPVSPSPPP and PFPSFLPLLLPS are within error of each other in protein stability index: 0.743 ± 0.037 for the first, 0.702 ± 0.069 for the second.

PFPSLLPALSSL and PFPSPAAPPPSL are within error of each other in protein stability index: 0.678 ± 0.044 for the first, 0.674 ± 0.01 for the second.

PFPSPPSPPSPL and PFPSTIQSYSYS are within error of each other in protein stability index: 0.817 ± 0.11 for the first, 0.738 ± 0.07 for the second.

PFRSFVFSLDPF and PFSASSILESVI are within error of each other in protein stability index: 0.725 ± 0.049 for the first, 0.719 ± 0.098 for the second.

PFTTSSQPDSPI and PFVAFLPPLSPP are within error of each other in protein stability index: 0.735 ± 0.065 for the first, 0.702 ± 0.037 for the second.

PFVSGFGRPGYC and PGDPRARPRLCP are within error of each other in protein stability index: 0.751 ± 0.039 for the first, 0.71 ± 0.033 for the second.

Compared with PGLGVGATRCVH, PGLPCRNRMPFR is lower in protein stability index: 0.734 ± 0.018 for the first, 0.687 ± 0.0078 for the second.

Going from PGNAEQGIAVHL to PGNYVLSDPPLM, the protein stability index rises from 0.626 ± 0.055 to 0.715 ± 0.033.

PGPATKAPLRTL and PGSILFRGVGAS are within error of each other in protein stability index: 0.671 ± 0.018 for the first, 0.691 ± 0.035 for the second.

PGVAGSLSLLRR and PGVFEITPVMLI are within error of each other in protein stability index: 0.722 ± 0.097 for the first, 0.6949 ± 0.0055 for the second.

PHAMNPNTSRVL and PHEKDKNMGKQK are within error of each other in protein stability index: 0.682 ± 0.008 for the first, 0.702 ± 0.085 for the second.

First: PHLHHPPPPISA
Second: PHPATSPVARPP
The protein stability index of the first is lower: 0.603 ± 0.027 for the first, 0.678 ± 0.014 for the second.

PHPDPDHCHAPP and PHPHLPPARSPP are within error of each other in protein stability index: 0.713 ± 0.1 for the first, 0.675 ± 0.019 for the second.

First: PHPPPPHPPPPP
Second: PHRPRDFALTPS
The protein stability index of the first is lower: 0.644 ± 0.027 for the first, 0.6905 ± 0.0048 for the second.

First: PHRSTRIDVDPC
Second: PHRSVSRLTILS
The protein stability index of the first is higher: 0.837 ± 0.12 for the first, 0.658 ± 0.012 for the second.

PHSDGVRLAEGF and PHSTTGPPPPLT are within error of each other in protein stability index: 0.713 ± 0.077 for the first, 0.695 ± 0.041 for the second.

Going from PHSVPPLTFPTS to PHVGSGDGVMKA, the protein stability index falls from 0.689 ± 0.037 to 0.598 ± 0.038.

PHYRYLHPSPPP and PIELTLQRPPGV are within error of each other in protein stability index: 0.704 ± 0.0073 for the first, 0.671 ± 0.031 for the second.

PIGLTCPASSVL and PILFHIPHRHVP are within error of each other in protein stability index: 0.692 ± 0.046 for the first, 0.749 ± 0.25 for the second.

First: PIPLPLSPPLPT
Second: PIPPDGGSPPSP
The protein stability index of the first is higher: 0.73 ± 0.011 for the first, 0.714 for the second.

First: PIPPDPPAYQGQ
Second: PIPPPPPPPSSP
The protein stability index of the first is lower: 0.6426 ± 0.0064 for the first, 0.699 ± 0.0086 for the second.

Compared with PITKLHRHYARG, PIWWSRSALLAE is lower in protein stability index: 0.6972 ± 0.0015 for the first, 0.671 ± 0.023 for the second.

PKQMVVRRSRRP and PKVRAGYSYEVM are within error of each other in protein stability index: 0.695 ± 0.07 for the first, 0.673 ± 0.019 for the second.

PKYKKKNNKKKT and PLAGLWPCRSGS are within error of each other in protein stability index: 0.709 ± 0.058 for the first, 0.669 ± 0.016 for the second.

PLALRPPFSHGL and PLAPNYPANTGT are within error of each other in protein stability index: 0.698 ± 0.024 for the first, 0.69 ± 0.021 for the second.

First: PLAPPTSASRFS
Second: PLAPYPPLPPPP
The protein stability index of the first is lower: 0.6466 ± 0.0027 for the first, 0.69 ± 0.027 for the second.

First: PLCCHRSTGCTL
Second: PLCPPPPYPPRS
The protein stability index of the first is lower: 0.676 ± 0.022 for the first, 0.745 ± 0.043 for the second.

Going from PLFLSLPLSFPS to PLGDIRPSPRDS, the protein stability index falls from 0.697 ± 0.0058 to 0.681 ± 0.0086.

PLILFLSLSRSV and PLILRSLFIFPV are within error of each other in protein stability index: 0.613 ± 0.066 for the first, 0.641 ± 0.037 for the second.

PLLDPFFPLVFT and PLLLPPVPPFCF are within error of each other in protein stability index: 0.58 ± 0.019 for the first, 0.674 ± 0.12 for the second.

PLLPPSDTCSLL and PLLPSLPPLLAP are within error of each other in protein stability index: 0.718 ± 0.089 for the first, 0.651 ± 0.05 for the second.

PLLPSPLIPFSH and PLLPSPPHSPTP are within error of each other in protein stability index: 0.688 ± 0.026 for the first, 0.657 ± 0.045 for the second.

Going from PLLPSPPLPCFF to PLLQALLPPAPP, the protein stability index falls from 0.765 ± 0.029 to 0.632 ± 0.026.

Compared with PLLSPLPSHPHP, PLPAFPRLAIQP is lower in protein stability index: 0.815 ± 0.058 for the first, 0.691 ± 0.021 for the second.

Going from PLPAISPPPTLP to PLPAPRHNALTT, the protein stability index falls from 0.758 ± 0.036 to 0.6137 ± 0.0045.

Compared with PLPASFPPFPTL, PLPCPRGHDHPA is lower in protein stability index: 0.802 ± 0.036 for the first, 0.688 ± 0.068 for the second.

PLPCSSLLVPLP and PLPLASVTPPYL are within error of each other in protein stability index: 0.627 ± 0.058 for the first, 0.669 ± 0.0067 for the second.

PLPLPLASSFPS and PLPLPPPPHPSL are within error of each other in protein stability index: 0.627 ± 0.059 for the first, 0.723 ± 0.041 for the second.
